# In IntAct's records for PubMed 25910212:
# B1: Inhibin alpha chain (Homo sapiens), P05111 (parent)
# chain: MVLHLLLFLLLTPQGGHSCQGLELARELVLAKVRALFLDALGPPAVTREGGDPGVRRLPRRHALGGFTHRGSEPEEEEDVSQAILFPATDASCEDKSAARGLAQEAEEGLFRYMFRPSQHTRSRQVTSAQLWFHTGLDRQGTAASNSSEPLLGLLALSPGGPVAVPMSLGHAPPHWAVLHLATSALSLLTHPVLVLLLRCPLCTCSARPEATPFLVAHTRTRPPSGGERARRSTPLMSWPWSPSALRLLQRPPEEPAAHANCHRVALNISFQELGWERWIVYPPSFIFHYCHGGCGLHIPPNLSLPVPGAPPTPAQPYSLLPGAQPCCAALPGTMRPLHVRTTSDGGYSFKYETVPNLLTQHCACI
# partner: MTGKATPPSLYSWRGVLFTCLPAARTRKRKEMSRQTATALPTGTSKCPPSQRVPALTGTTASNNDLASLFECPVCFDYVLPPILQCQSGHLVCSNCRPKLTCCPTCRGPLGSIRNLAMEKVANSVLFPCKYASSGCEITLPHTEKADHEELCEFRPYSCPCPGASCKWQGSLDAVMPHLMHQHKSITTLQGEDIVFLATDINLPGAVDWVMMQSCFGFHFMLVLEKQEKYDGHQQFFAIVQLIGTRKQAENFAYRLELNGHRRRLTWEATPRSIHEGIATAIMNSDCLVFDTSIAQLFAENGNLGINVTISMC
# B2: X-linked retinitis pigmentosa GTPase regulator (Homo sapiens), Q92834 (parent)
# chain: MREPEELMPDSGAVFTFGKSKFAENNPGKFWFKNDVPVHLSCGDEHSAVVTGNNKLYMFGSNNWGQLGLGSKSAISKPTCVKALKPEKVKLAACGRNHTLVSTEGGNVYATGGNNEGQLGLGDTEERNTFHVISFFTSEHKIKQLSAGSNTSAALTEDGRLFMWGDNSEGQIGLKNVSNVCVPQQVTIGKPVSWISCGYYHSAFVTTDGELYVFGEPENGKLGLPNQLLGNHRTPQLVSEIPEKVIQVACGGEHTVVLTENAVYTFGLGQFGQLGLGTFLFETSEPKVIENIRDQTISYISCGENHTALITDIGLMYTFGDGRHGKLGLGLENFTNHFIPTLCSNFLRFIVKLVACGGCHMVVFAAPHRGVAKEIEFDEINDTCLSVATFLPYSSLTSGNVLQRTLSARMRRRERERSPDSFSMRRTLPPIEGTLGLSACFLPNSVFPRCSERNLQESVLSEQDLMQPEEPDYLLDEMTKEAEIDNSSTVESLGETTDILNMTHIMSLNSNEKSLKLSPVQKQKKQQTIGELTQDTALTENDDSDEYEEMSEMKEGKACKQHVSQGIFMTQPATTIEAFSDEEVGNDTGQVGPQADTDGEGLQKEVYRHENNNGVDQLDAKEIEKESDGGHSQKESEAEEIDSEKETKLAEIAGMKDLREREKSTKKMSPFFGNLPDRGMNTESEENKDFVKKRESCKQDVIFDSERESVEKPDSYMEGASESQQGIADGFQQPEAIEFSSGEKEDDEVETDQNIRYGRKLIEQGNEKETKPIISKSMAKYDFKCDRLSEIPEEKEGAEDSKGNGIEEQEVEANEENVKVHGGRKEKTEILSDDLTDKAEDHEFSKTEELKLEDVDEEINAENVESKKKTVGDDESVPTGYHSKTEGAERTNDDSSAETIEKKEKANLEERAICEYNENPKGYMLDDADSSSLEILENSETTPSKDMKKTKKIFLFKRVPSINQKIVKNNNEPLPEIKSIGDQIILKSDNKDADQNHMSQNHQNIPPTNTERRSKSCTIL
# partner: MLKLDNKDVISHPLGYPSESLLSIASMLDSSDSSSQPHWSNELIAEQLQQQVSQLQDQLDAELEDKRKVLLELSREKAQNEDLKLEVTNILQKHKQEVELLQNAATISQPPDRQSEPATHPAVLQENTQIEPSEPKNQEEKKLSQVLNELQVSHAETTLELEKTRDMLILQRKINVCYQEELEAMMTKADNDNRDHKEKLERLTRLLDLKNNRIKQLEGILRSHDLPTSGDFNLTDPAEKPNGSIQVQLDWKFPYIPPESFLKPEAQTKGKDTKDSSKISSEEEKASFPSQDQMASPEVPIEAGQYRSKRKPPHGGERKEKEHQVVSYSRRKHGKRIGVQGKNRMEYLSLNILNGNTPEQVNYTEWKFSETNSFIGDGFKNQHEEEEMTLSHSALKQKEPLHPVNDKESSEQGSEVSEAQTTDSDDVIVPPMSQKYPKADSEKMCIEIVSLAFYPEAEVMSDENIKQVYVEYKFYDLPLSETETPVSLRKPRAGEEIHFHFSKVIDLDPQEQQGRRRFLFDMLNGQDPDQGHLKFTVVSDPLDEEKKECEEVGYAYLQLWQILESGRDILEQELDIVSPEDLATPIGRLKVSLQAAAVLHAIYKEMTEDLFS
# B3: B-cell lymphoma/leukemia 10 (Homo sapiens), O95999 (parent)
# chain: MEPTAPSLTEEDLTEVKKDALENLRVYLCEKIIAERHFDHLRAKKILSREDTEEISCRTSSRKRAGKLLDYLQENPKGLDTLVESIRREKTQNFLIQKITDEVLKLRNIKLEHLKGLKCSSCEPFPDGATNNLSRSNSDESNFSEKLRASTVMYHPEGESSTTPFFSTNSSLNLPVLEVGRTENTIFSSTTLPRPGDPGAPPLPPDLQLEEEGTCANSSEMFLPLRSRTVSRQ
# partner: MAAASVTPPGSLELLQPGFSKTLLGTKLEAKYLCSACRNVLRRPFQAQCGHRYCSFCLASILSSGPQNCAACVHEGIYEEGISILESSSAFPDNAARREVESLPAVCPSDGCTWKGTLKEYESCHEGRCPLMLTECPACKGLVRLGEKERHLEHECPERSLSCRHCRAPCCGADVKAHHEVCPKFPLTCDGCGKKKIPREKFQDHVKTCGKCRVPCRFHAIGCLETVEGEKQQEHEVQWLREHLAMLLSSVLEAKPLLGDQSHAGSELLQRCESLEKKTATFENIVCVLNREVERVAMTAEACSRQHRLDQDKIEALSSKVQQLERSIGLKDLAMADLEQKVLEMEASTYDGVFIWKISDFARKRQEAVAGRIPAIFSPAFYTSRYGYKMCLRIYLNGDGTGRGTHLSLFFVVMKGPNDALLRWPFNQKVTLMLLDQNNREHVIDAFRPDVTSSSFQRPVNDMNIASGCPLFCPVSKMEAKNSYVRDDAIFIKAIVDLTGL
# B4: Plakophilin-2 (Homo sapiens), Q99959-2 (parent)
# chain: MAAPGAPAEYGYIRTVLGQQILGQLDSSSLALPSEAKLKLAGSSGRGGQTVKSLRIQEQVQQTLARKGRSSVGNGNLHRTSSVPEYVYNLHLVENDFVGGRSPVPKTYDMLKAGTTATYEGRWGRGTAQYSSQKSVEERSLRHPLRRLEISPDSSPERAHYTHSDYQYSQRSQAGHTLHHQESRRAALLVPPRYARSEIVGVSRAGTTSRQRHFDTYHRQYQHGSVSDTVFDSIPANPALLTYPRPGTSRSMGNLLEKENYLTAGLTVGQVRPLVPLQPVTQNRASRSSWHQSSFHSTRTLREAGPSVAVDSSGRRAHLTVGQAAAGGSGNLLTERSTFTDSQLGNADMEMTLERAVSMLEADHMLPSRISAAATFIQHECFQKSEARKRVNQLRGILKLLQLLKVQNEDVQRAVCGALRNLVFEDNDNKLEVAELNGVPRLLQVLKQTRDLETKKQITGLLWNLSSNDKLKNLMITEALLTLTENIIIPFSGWPEGDYPKANGLLDFDIFYNVTGCLRNMSSAGADGRKAMRRCDGLIDSLVHYVRGTIADYQPDDKATENCVCILHNLSYQLEAELPEKYSQNIYIQNRNIQTDNNKSIGCFGSRSRKVKEQYQDVPMPEEKSNPKGVEWLWHSIVIRMYLSLIAKSVRNYTQEASLGALQNLTAGSGPMPTSVAQTVVQKESGLQHTRKMLHVGDPSVKKTAISLLRNLSRNLSLQNEIAKETLPDLVSIIPDTVPSTDLLIETTASACYTLNNIIQNSYQNARDLLNTGGIQKIMAISAGDAYASNKASKAASVLLYSLWAHTELHHAYKKAQFKKTDFVNSRTAKAYHSLKD
# B5: SH2 domain-containing protein 1A (Homo sapiens), O60880 (parent)
# chain: MDAVAVYHGKISRETGEKLLLATGLDGSYLLRDSESVPGVYCLCVLYHGYIYTYRVSQTETGSWSAETAPGVHKRYFRKIKNLISAFQKPDQGIVIPLQYPVEKKSSARSTQGTTGIREDPDVCLKAP
# Variants of: B1
# Conditions: with SIAH1, Q8IUQ4-2
row,Variant,effect of a mutation on the interaction
1,P43A,with no effect
2,A182D,with no effect
3,A257T,with no effect

# Variants of: B2
# Conditions: with RPGRIP1, Q96KN7-4
row,Variant,effect of a mutation on the interaction
1,H98Q,disrupting interaction strength
2,T255I,disrupting interaction strength
3,R425K,with no effect
4,Q184H,with no effect
5,G436D,with no effect

# Variants of: B3
# Conditions: with traf2_human TRAF2, Q12933
row,Variant,effect of a mutation on the interaction
1,A5S,with no effect

# Variants of: B4
# Conditions: with MTUS2, Q5JR59-3
# Chain of MTUS2, Q5JR59-3 (Q5JR59 other isoform, or with tags, fused parts or gaps): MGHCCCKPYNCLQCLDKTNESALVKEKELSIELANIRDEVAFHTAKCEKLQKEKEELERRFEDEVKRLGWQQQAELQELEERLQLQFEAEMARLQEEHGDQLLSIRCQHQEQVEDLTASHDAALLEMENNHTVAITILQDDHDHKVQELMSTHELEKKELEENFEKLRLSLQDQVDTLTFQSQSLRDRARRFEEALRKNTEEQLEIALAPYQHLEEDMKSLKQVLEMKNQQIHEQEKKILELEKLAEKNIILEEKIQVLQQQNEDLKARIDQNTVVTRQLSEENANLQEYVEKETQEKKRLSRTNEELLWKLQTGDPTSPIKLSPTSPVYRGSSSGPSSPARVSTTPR
row,Variant,effect of a mutation on the interaction
1,A264V,with no effect
2,S644P,disrupting interaction strength
3,S140F,disrupting interaction strength

# Variants of: B5
# Conditions: with TNK2, Q07912-2
# Chain of TNK2, Q07912-2 (Q07912 other isoform, or with tags, fused parts or gaps): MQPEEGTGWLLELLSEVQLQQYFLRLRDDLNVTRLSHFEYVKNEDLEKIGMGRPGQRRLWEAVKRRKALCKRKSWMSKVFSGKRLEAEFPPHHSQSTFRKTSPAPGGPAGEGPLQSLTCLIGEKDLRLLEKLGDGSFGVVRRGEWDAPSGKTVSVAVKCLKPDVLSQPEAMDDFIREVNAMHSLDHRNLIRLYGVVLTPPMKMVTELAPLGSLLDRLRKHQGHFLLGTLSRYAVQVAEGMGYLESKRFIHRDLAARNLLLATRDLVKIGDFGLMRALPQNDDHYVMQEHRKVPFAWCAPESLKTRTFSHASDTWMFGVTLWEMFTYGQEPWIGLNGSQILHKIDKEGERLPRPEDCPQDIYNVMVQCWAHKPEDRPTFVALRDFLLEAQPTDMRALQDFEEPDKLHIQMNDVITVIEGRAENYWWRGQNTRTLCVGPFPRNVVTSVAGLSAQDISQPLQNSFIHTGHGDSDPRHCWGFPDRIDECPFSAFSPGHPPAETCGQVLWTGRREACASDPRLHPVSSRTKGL
row,Variant,effect of a mutation on the interaction
1,P101L,with no effect
2,R32T,with no effect
